In patent US20020072115A1:

Target: α6 integrin (mouse) (UniProt Q61739)
Assay: cell-based or functional assay

Sequence of UniProt Q61739 (Q61739 24-1091): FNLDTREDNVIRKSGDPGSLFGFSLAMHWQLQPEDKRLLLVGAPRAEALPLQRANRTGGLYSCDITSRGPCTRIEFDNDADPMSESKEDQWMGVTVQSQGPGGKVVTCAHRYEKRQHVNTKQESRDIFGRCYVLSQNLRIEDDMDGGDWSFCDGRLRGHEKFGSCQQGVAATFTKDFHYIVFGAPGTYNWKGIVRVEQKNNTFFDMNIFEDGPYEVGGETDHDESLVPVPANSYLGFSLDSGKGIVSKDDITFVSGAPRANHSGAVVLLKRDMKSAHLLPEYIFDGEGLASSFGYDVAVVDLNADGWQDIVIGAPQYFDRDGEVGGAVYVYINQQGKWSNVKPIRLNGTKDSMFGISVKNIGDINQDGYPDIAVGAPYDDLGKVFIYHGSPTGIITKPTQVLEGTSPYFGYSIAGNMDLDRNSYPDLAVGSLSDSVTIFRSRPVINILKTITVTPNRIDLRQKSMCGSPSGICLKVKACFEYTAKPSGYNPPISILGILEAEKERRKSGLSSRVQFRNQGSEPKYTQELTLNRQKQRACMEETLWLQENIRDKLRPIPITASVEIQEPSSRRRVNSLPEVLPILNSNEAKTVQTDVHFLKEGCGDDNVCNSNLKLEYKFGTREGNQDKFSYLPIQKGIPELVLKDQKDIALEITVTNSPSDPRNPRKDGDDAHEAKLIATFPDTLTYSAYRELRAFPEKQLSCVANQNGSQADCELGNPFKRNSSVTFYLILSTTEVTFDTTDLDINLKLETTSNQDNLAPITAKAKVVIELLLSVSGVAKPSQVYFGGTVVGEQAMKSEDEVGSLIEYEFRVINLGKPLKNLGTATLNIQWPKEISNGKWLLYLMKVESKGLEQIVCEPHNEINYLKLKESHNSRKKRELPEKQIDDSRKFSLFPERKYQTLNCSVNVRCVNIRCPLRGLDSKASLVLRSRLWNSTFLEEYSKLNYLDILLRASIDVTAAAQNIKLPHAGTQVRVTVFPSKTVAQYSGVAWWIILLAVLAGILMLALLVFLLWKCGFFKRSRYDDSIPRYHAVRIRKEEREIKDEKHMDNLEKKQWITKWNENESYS

total cell number per well (13.5 dpc fetal mouse pancreas cells cultured with laminin-1) (cells per well): 7190 | β cell number per well (13.5 dpc fetal mouse pancreas cells cultured with laminin-1) (cells per well): 6890
Substance: Rat monoclonal antibody (clone NKI-GoH3, IgG2a)
